From patent publication US12679878B2, “CRF2 receptor agonists and their use in therapy” (SANOFI, priority 2020, dated 2026)
Starred links: 1 amine or outer side, 2 acyl side, 3 side chain; linkers in the order of their positions; H or OH if unused. Groups on a side chain read outwards from the residue. No end group written: not given here. *: point of attachment. C20 diacid = O=C(O)CCCCCCCCCCCCCCCCCCC(=O)*; C18 diacid = O=C(O)CCCCCCCCCCCCCCCCC(=O)*; γGlu = O=C(O)[C@H](CCC(=O)[*:2])N[*:1]; AEEA = NCCOCCOCC(=O)O

T1: anti-target CRF1R receptor (UniProt P34998 24-415, limits assumed)
T1 sequence (looked up): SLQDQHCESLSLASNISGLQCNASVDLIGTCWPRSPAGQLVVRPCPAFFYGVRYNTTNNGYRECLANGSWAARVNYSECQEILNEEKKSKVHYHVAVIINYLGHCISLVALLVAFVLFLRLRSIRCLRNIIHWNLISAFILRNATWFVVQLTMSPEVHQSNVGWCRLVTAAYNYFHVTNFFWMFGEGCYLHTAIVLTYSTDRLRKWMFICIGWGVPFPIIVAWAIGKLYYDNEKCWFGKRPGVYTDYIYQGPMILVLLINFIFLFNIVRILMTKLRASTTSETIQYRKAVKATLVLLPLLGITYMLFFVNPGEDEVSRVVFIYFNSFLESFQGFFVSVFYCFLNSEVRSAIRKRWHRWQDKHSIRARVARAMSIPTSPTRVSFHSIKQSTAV

B1: peptide of SEQ ID NO: 52 (peptide)
peptide: FTLSLDVPTKIK([AEEA-AEEA-γGlu-C18 diacid])QILLKQQKQKKERQQAEKNKQLLERV-NH2
modifications: N-terminus assumed
SMILES: CC[C@H](C)[C@H](NC(=O)[C@H](CCC(N)=O)NC(=O)[C@H](CCCCNC(=O)COCCOCCNC(=O)COCCOCCNC(=O)CC[C@H](NC(=O)CCCCCCCCCCCCCCCCC(=O)O)C(=O)O)NC(=O)[C@@H](NC(=O)[C@H](CCCCN)NC(=O)[C@@H](NC(=O)[C@@H]1CCCN1C(=O)[C@@H](NC(=O)[C@H](CC(=O)O)NC(=O)[C@H](CC(C)C)NC(=O)[C@H](CO)NC(=O)[C@H](CC(C)C)NC(=O)[C@@H](NC(=O)[C@@H](N)Cc1ccccc1)[C@@H](C)O)C(C)C)[C@@H](C)O)[C@@H](C)CC)C(=O)N[C@@H](CC(C)C)C(=O)N[C@@H](CC(C)C)C(=O)N[C@@H](CCCCN)C(=O)N[C@@H](CCC(N)=O)C(=O)N[C@@H](CCC(N)=O)C(=O)N[C@@H](CCCCN)C(=O)N[C@@H](CCC(N)=O)C(=O)N[C@@H](CCCCN)C(=O)N[C@@H](CCCCN)C(=O)N[C@@H](CCC(=O)O)C(=O)N[C@@H](CCCNC(=N)N)C(=O)N[C@@H](CCC(N)=O)C(=O)N[C@@H](CCC(N)=O)C(=O)N[C@@H](C)C(=O)N[C@@H](CCC(=O)O)C(=O)N[C@@H](CCCCN)C(=O)N[C@@H](CC(N)=O)C(=O)N[C@@H](CCCCN)C(=O)N[C@@H](CCC(N)=O)C(=O)N[C@@H](CC(C)C)C(=O)N[C@@H](CC(C)C)C(=O)N[C@@H](CCC(=O)O)C(=O)N[C@@H](CCCNC(=N)N)C(=O)N[C@H](C(N)=O)C(C)C
B2: peptide of SEQ ID NO: 53 (peptide)
peptide: FTLSLDVPTKIK([AEEA-AEEA-γGlu-C18 diacid])QILLKQQKQKKERQQAETNKQLLERV-NH2
modifications: N-terminus assumed
SMILES: CC[C@H](C)[C@H](NC(=O)[C@H](CCC(N)=O)NC(=O)[C@H](CCCCNC(=O)COCCOCCNC(=O)COCCOCCNC(=O)CC[C@H](NC(=O)CCCCCCCCCCCCCCCCC(=O)O)C(=O)O)NC(=O)[C@@H](NC(=O)[C@H](CCCCN)NC(=O)[C@@H](NC(=O)[C@@H]1CCCN1C(=O)[C@@H](NC(=O)[C@H](CC(=O)O)NC(=O)[C@H](CC(C)C)NC(=O)[C@H](CO)NC(=O)[C@H](CC(C)C)NC(=O)[C@@H](NC(=O)[C@@H](N)Cc1ccccc1)[C@@H](C)O)C(C)C)[C@@H](C)O)[C@@H](C)CC)C(=O)N[C@@H](CC(C)C)C(=O)N[C@@H](CC(C)C)C(=O)N[C@@H](CCCCN)C(=O)N[C@@H](CCC(N)=O)C(=O)N[C@@H](CCC(N)=O)C(=O)N[C@@H](CCCCN)C(=O)N[C@@H](CCC(N)=O)C(=O)N[C@@H](CCCCN)C(=O)N[C@@H](CCCCN)C(=O)N[C@@H](CCC(=O)O)C(=O)N[C@@H](CCCNC(=N)N)C(=O)N[C@@H](CCC(N)=O)C(=O)N[C@@H](CCC(N)=O)C(=O)N[C@@H](C)C(=O)N[C@@H](CCC(=O)O)C(=O)N[C@H](C(=O)N[C@@H](CC(N)=O)C(=O)N[C@@H](CCCCN)C(=O)N[C@@H](CCC(N)=O)C(=O)N[C@@H](CC(C)C)C(=O)N[C@@H](CC(C)C)C(=O)N[C@@H](CCC(=O)O)C(=O)N[C@@H](CCCNC(=N)N)C(=O)N[C@H](C(N)=O)C(C)C)[C@@H](C)O
B3: peptide of SEQ ID NO: 54 (peptide)
peptide: FTLSLDVPIKLK([AEEA-AEEA-γGlu-C18 diacid])QILLKQQKQKKERQQAETNVQLLERV-NH2
modifications: N-terminus assumed
SMILES: CC[C@H](C)[C@H](NC(=O)[C@H](CCC(N)=O)NC(=O)[C@H](CCCCNC(=O)COCCOCCNC(=O)COCCOCCNC(=O)CC[C@H](NC(=O)CCCCCCCCCCCCCCCCC(=O)O)C(=O)O)NC(=O)[C@H](CC(C)C)NC(=O)[C@H](CCCCN)NC(=O)[C@@H](NC(=O)[C@@H]1CCCN1C(=O)[C@@H](NC(=O)[C@H](CC(=O)O)NC(=O)[C@H](CC(C)C)NC(=O)[C@H](CO)NC(=O)[C@H](CC(C)C)NC(=O)[C@@H](NC(=O)[C@@H](N)Cc1ccccc1)[C@@H](C)O)C(C)C)[C@@H](C)CC)C(=O)N[C@@H](CC(C)C)C(=O)N[C@@H](CC(C)C)C(=O)N[C@@H](CCCCN)C(=O)N[C@@H](CCC(N)=O)C(=O)N[C@@H](CCC(N)=O)C(=O)N[C@@H](CCCCN)C(=O)N[C@@H](CCC(N)=O)C(=O)N[C@@H](CCCCN)C(=O)N[C@@H](CCCCN)C(=O)N[C@@H](CCC(=O)O)C(=O)N[C@@H](CCCNC(=N)N)C(=O)N[C@@H](CCC(N)=O)C(=O)N[C@@H](CCC(N)=O)C(=O)N[C@@H](C)C(=O)N[C@@H](CCC(=O)O)C(=O)N[C@H](C(=O)N[C@@H](CC(N)=O)C(=O)N[C@H](C(=O)N[C@@H](CCC(N)=O)C(=O)N[C@@H](CC(C)C)C(=O)N[C@@H](CC(C)C)C(=O)N[C@@H](CCC(=O)O)C(=O)N[C@@H](CCCNC(=N)N)C(=O)N[C@H](C(N)=O)C(C)C)C(C)C)[C@@H](C)O
B4: peptide of SEQ ID NO: 67 (peptide)
peptide: IVLSLDVPIKLK([AEEA-AEEA-γGlu-C18 diacid])QILLEQEKQKKQREQAETNKQILAQV-NH2
modifications: N-terminus assumed
SMILES: CC[C@H](C)[C@H](N)C(=O)N[C@H](C(=O)N[C@@H](CC(C)C)C(=O)N[C@@H](CO)C(=O)N[C@@H](CC(C)C)C(=O)N[C@@H](CC(=O)O)C(=O)N[C@H](C(=O)N1CCC[C@H]1C(=O)N[C@H](C(=O)N[C@@H](CCCCN)C(=O)N[C@@H](CC(C)C)C(=O)N[C@@H](CCCCNC(=O)COCCOCCNC(=O)COCCOCCNC(=O)CC[C@H](NC(=O)CCCCCCCCCCCCCCCCC(=O)O)C(=O)O)C(=O)N[C@@H](CCC(N)=O)C(=O)N[C@H](C(=O)N[C@@H](CC(C)C)C(=O)N[C@@H](CC(C)C)C(=O)N[C@@H](CCC(=O)O)C(=O)N[C@@H](CCC(N)=O)C(=O)N[C@@H](CCC(=O)O)C(=O)N[C@@H](CCCCN)C(=O)N[C@@H](CCC(N)=O)C(=O)N[C@@H](CCCCN)C(=O)N[C@@H](CCCCN)C(=O)N[C@@H](CCC(N)=O)C(=O)N[C@@H](CCCNC(=N)N)C(=O)N[C@@H](CCC(=O)O)C(=O)N[C@@H](CCC(N)=O)C(=O)N[C@@H](C)C(=O)N[C@@H](CCC(=O)O)C(=O)N[C@H](C(=O)N[C@@H](CC(N)=O)C(=O)N[C@@H](CCCCN)C(=O)N[C@@H](CCC(N)=O)C(=O)N[C@H](C(=O)N[C@@H](CC(C)C)C(=O)N[C@@H](C)C(=O)N[C@@H](CCC(N)=O)C(=O)N[C@H](C(N)=O)C(C)C)[C@@H](C)CC)[C@@H](C)O)[C@@H](C)CC)[C@@H](C)CC)C(C)C)C(C)C

How the values were obtained:
[1] = molecular target: T1, anti-target CRF1R receptor; assay: cell-based or functional assay
rat CRF2R α receptor = rat CRF2R α receptor (rat, UniProt P47866 20-411); assay: cell-based or functional assay
Chain of rat CRF2R α receptor (P47866 20-411): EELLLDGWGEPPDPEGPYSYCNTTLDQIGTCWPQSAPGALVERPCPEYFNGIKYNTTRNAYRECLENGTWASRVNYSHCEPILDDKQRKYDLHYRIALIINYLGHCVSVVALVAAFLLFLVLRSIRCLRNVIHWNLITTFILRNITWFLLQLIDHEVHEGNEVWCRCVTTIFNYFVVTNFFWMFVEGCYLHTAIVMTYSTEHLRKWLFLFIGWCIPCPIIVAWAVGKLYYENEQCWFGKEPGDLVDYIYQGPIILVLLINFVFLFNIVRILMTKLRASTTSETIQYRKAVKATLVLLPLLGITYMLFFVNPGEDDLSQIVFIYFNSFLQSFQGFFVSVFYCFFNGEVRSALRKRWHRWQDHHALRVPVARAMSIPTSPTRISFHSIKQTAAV

Binder	EC50[nM] 0% HSA (cAMP, CRF1R-overexpression CHO cells) [1] [nM]	Emax (%) (cAMP, CRF1R-overexpression CHO cells) [1]	EC50 [nM], 0% HSA (cAMP, A7R5 cells) (rat CRF2R α receptor) [nM]
B1	> 1000	5.3	0.76
B2	> 1000	4.14	1.32
B3	> 1000	2.72	1.51
FTLSLDVPTKIK([AEEA-AEEA-γGlu-C20 diacid])QILFKQQKQKKERQQAEKNKQLLEQI-NH2 [peptide of SEQ ID NO: 58]	> 1000	9.12	0.72
FTLSLDVPTKIK([AEEA-AEEA-γGlu-C20 diacid])QILLKQQKQKKERQQAEKNKQLLERV-NH2 [peptide of SEQ ID NO: 60]	> 1000	4.84	1.35
FTLSLDVPTKIK([AEEA-AEEA-γGlu-C20 diacid])QILLKQQKQKKERQQAETNKQLLERV-NH2 [peptide of SEQ ID NO: 61]	> 1000	3.31	0.94
FTLSLDVPIKLK([AEEA-AEEA-γGlu-C20 diacid])QILLKQQKQKKERQQAETNVQLLERV-NH2 [peptide of SEQ ID NO: 62]	> 1000	2.28	2.9
FTLSLDVPIKLK([AEEA-AEEA-γGlu-C20 diacid])QILLEQQKQKKERQQAETNVQLLERV-NH2 [peptide of SEQ ID NO: 63]	> 1000	4.68	4.73
B4	> 1000	9.18	0.66
